Measured values taken from patent US20060057669A1, “Inactive transcription factor tif-ia and uses thereof” (priority 2002, published 2006).

Legend:
Assay type in all cases: biochemical
Pol I transcription [1] = assay: Complementation of Pol I transcription in nuclear extracts from rapamycin-treated FM3A cells
Experimental: (B) Complementation of transcriptional activity in nuclear extracts from rapamycin-treated cells. Transcription reactions contained nuclear extracts (30 μg) from untreated (NE) or rapamycin-treated (NERapa) FM3A cells. In lanes 3-7, fractions containing partially purified Pol I transcription factors were added to NERapa-containing reactions.
(C) TIF-IA activates transcription in nuclear extracts form rapamycin-treated cells. Reactions were complemented with either 1 μl (lanes 2 and 5) of cellular TIF-IA (PL-650 fraction) or 20 ng (lanes 3 and 6) of immunopurified recombinant TIF-IA that has been expressed in SF9 cells.
(A) mTOR rescues transcription in vitro. Pol I transcription was assayed in nuclear extracts from rapamycin-treated FM3A cells. Reactions were supplemented with 50 ng TIF-IA (lane 1) or 10 ng, 20 ng and 30 ng of HA-mTOR (lanes 3-5).
(B) S6K1 activates Pol I transcription in extracts from rapamycin-treated cells. NERapa was supplemented with 50 ng TIF-IA (lane 1) or 100, 150 and 200 ng of GST-S6K1 (lanes 3-5) or GST-S6K1dd (lanes 6-8).
(§1) Nuclear extracts were prepared from exponentially growing (8×10^5 cells/ml), density-arrested or PD98059-treated (CN Bioscience, Bad Soden, Germany) 40 μM, 0.5 hr) or rapamycin-treated FM3A cells (ATCC, Manassas, USA). 25 μl assays contained 50 ng of template DNA (pMr600/EcoRI), 30 μg nuclear extract proteins and 12 mM Hepes-KOH, [pH8.0], 0.1 mM EDTA, 5 mM MgCl2, 80 mM KCl, 10 mM creatine phosphate, 12% (v/v) glycerol, 0.66 mM each of ATP, GTP and CTP, 0.01 mM UTP and 0.5 μCi [α-^32P]UTP (5000 Ci/mmol). After incubation for 60 min at 30° C., RNA was extracted and analyzed on non-denaturing 5% polyacrylamide gels
mTOR and S6K1 were purified from HEK293T cells overexpressing HA-tagged mTOR or GST/myc-tagged S6K1, respectively. 5×10^6 cells were lysed in 0.8 ml IP buffer, centrifuged at 10,000×g for 20 min, and the supernatants were incubated for 4 hr at 4° C. with either 15 μg anti-HA antibodies bound to 20 μl protein G-agarose (for HA-mTOR) or 20 μl packed GST-glutathione beads (for GST-myc-S6K1). […]

Pol I transcription [2] = assay: Complementation of Pol I transcription in nuclear extracts from PD98059-treated FM3A cells; conditions: standard transcription system containing ATP and GTP
Experimental: (C) TIF-IA, but not UBF, rescues Pol I transcription in extracts from PD98059-treated cells. Nuclear extracts from untreated or PD98059-treated FM3A cells were supplemented with 20 and 40 ng of purified TIF-IA and/or UBF (10 ng in lanes 7 and 9, 50 ng in lanes 3, 8 and 10).
(D) TIF-IA activates transcription in extracts from PD98059-treated cells in the presence of AMP-PNP and GMP-PNP. Nuclear extracts from PD98059-treated FM3A cells were supplemented with 40 ng of purified TIF-IA and assayed in the standard transcription system containing ATP and GTP (ATP, lanes 1, 2) or AMP-PNP and GMP-PNP (AMP-PNP, lanes 3, 4)
(D) ERK/RSK-dependent phosphorylation activates Pol I transcription in vitro. Nuclear extracts from PD98059-treated FM3A cells were supplemented with 40 ng of TIF-IA, 10 ng of HA-RSK, or 10 ng of HA-ERK as indicated, and transcriptional activity was assayed in the standard transcription system containing ATP and GTP (lanes 4-8) or AMP-PNP and GMP-PNP (lanes 9-13).
as §1
To test whether both TIF-IA and UBF, or TIF-IA alone, were targeted by ERK-mediated phosphorylation, nuclear extracts from untreated and PD98059-treated cells were assayed for rDNA transcription in the absence and presence of exogenous TIF-IA or UBF (FIG. 2C). If both UBF and TIF-IA were inactivated by PD98059, rescue of Pol I transcriptional activity would require both factors, whereas TIF-IA alone would be sufficient if it was the only factor that is inactivated by inhibition of the ERK pathway. […]

RSK2 = molecular target: T1, RSK2 (Mus musculus, UniProt P18654, A376E/A378E/F387I/G384D/H379Q/INS385D/L381M/N377E/Q380E/S369E/S386Y/T365E); assay: In vitro kinase assay with immunopurified RSK2
T1 construct: made in house; host or cells: HEK293T (kinase, immunopurified via HA); E. coli BL21(DE3) (GST substrate)
Experimental: (A) Tryptic peptide maps of recombinant TIF-IA phosphorylated by RSK2 in vitro. GST/TIF-IA409-651 was phosphorylated with HA-RSK-CA in vitro and the phosphopeptide pattern was compared with that of wild-type TIF-IA and TIF-IA1-632 labeled in vivo.
HA-tagged ERK1/2 or RSK2-CA was overexpressed in HEK293T cells, immunopurified and immobilized to protein G agarose. After stringent washing, the beads were suspended in 20 μl of 1.5× kinase assay buffer (75 mM Tris-HCl [pH 8.0], 15 mM MgCl2, 1.5 mM DTT, 5% glycerol) and assayed for activity. 30 μl reactions contained 100 μM ATP, 0.2 μCi of […] (5000 Ci/mmol), 0.5-1 μg S6 peptide (RRSSLRA) or GST/TIF-IA (Yuan et al. EMBO Reports 3 (2002) 1082-1087) and 10 fmoles RSK. After incubation for 30 min at 30° C., 5 μl of the supernatants were spotted onto phosphocellulose paper (Whatman p81), washed with 150 mM orthophosphoric acid and quantified with a PhosphorImager (Molecular Dynamics, Inc.). Alternatively, labeled GST/TIF-IA was subjected to SDS-PAGE, blotted onto nitrocellulose, digested with trypsin and analyzed by two-dimensional phosphopeptide mapping.
Phosphoamino acid analysis has established that TIF-IA is exclusively phosphorylated on serine residues (data not shown). The C-terminal tryptic peptide of TIF-IA contains three S—P sites (FIG. 4B, upper panel), a known target motif for MAPKs. […]

T1 sequence (P18654 with tags, fused parts or gaps with the stated changes): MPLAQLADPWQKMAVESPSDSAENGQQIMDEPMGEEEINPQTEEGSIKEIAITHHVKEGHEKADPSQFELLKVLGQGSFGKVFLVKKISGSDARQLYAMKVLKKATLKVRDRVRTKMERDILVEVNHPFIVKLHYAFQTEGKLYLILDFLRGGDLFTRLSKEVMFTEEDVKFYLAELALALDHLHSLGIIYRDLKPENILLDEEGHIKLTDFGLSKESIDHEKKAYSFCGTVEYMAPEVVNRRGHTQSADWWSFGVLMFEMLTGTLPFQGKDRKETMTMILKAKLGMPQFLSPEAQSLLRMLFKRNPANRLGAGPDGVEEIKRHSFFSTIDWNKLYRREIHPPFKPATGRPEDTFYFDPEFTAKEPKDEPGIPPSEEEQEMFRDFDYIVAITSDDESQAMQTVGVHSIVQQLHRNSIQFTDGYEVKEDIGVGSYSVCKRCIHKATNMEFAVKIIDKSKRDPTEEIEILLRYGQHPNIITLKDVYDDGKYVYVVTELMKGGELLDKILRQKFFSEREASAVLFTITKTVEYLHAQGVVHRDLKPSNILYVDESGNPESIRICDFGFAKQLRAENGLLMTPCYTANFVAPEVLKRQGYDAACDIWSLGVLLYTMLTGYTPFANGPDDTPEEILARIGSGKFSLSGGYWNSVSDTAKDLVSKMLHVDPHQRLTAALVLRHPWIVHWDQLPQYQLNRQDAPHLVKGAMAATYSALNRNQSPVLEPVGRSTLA

In the case of “S6K1: GST/myc-tagged S6 kinase purified from HEK293T cells”, the “rescue of Pol I transcription in extracts from rapamycin-treated cells” value (Pol I transcription [1]) is reported as “activated Pol I transcription to an extent that compared to that of exogenous TIF-IA”.

B1: UBF: basal Pol I transcription initiation factor, FLAG-tagged UBF1 purified from Sf9 cells (protein, UniProt P17480 1-764, looked up)
Nucleolar transcription …: MNGEADCPTDLEMAAPKGQDRWSQEDMLTLLECMKNNLPSNDSSKFKTTESHMDWEKVAFKDFSGDMCKLKWVEISNEVRKFRTLTELILDAQEHVKNPYKGKKLKKHPDFPKKPLTPYFRFFMEKRAKYAKLHPEMSNLDLTKILSKKYKELPEKKKMKYIQDFQREKQEFERNLARFREDHPDLIQNAKKSDIPEKPKTPQQLWYTHEKKVYLKVRPDATTKEVKDSLGKQWSQLSDKKRLKWIHKALEQRKEYEEIMRDYIQKHPELNISEEGITKSTLTKAERQLKDKFDGRPTKPPPNSYSLYCAELMANMKDVPSTERMVLCSQQWKLLSQKEKDAYHKKCDQKKKDYEVELLRFLESLPEEEQQRVLGEEKMLNINKKQATSPASKKPAQEGGKGGSEKPKRPVSAMFIFSEEKRRQLQEERPELSESELTRLLARMWNDLSEKKKAKYKAREAALKAQSERKPGGEREERGKLPESPKRAEEIWQQSVIGDYLARFKNDRVKALKAMEMTWNNMEKKEKLMWIKKAAEDQKRYERELSEMRAPPAATNSSKKMKFQGEPKKPPMNGYQKFSQELLSNGELNHLPLKERMVEIGSRWQRISQSQKEHYKKLAEEQQKQYKVHLDLWVKSLSPQDRAAYKEYISNKRKSMTKLRGPNPKSSRTTLQSKSESEEDDEEDEDDEDEDEEEEDDENGDSSEDGGDSSESSSEDESEDGDENEEDDEDEDDDEDDDEDEDNESEGSSSSSSSSGDSSDSDSN
modifications: UBF1 FLAG tag
notes: basal Pol I transcription initiation factor, FLAG-tagged UBF1 purified from Sf9 cells
In the case of B1, the “rescue of Pol I transcription in extracts from PD98059-treated cells” value (Pol I transcription [2]) is reported as “had no effect”.

B2: GST/TIF-IA409-651: GST fusion of the C-terminal part of TIF-IA containing aa 410-651 (protein, UniProt Q9NYV6 410-651, looked up, fragment)
chain: FLARAKFIPLITVKSCLDLLVNWLHIYLNNQDSGTKAFCDVALHGPFYSACQAVFYTFVFRHKQLLSGNLKEGLQYLQSLNFERIVMSQLNPLKICLPSVVNFFAAITNKYQLVFCYTIIERNNRQMLPVIRSTAGGDSVQICTNPLDTFFPFDPCVLKRSKKFIDPIYQVWEDMSAEELQEFKKPMKKDIVEDEDDDFLKGEVPQNDTVIGITPSSFDTHFRSPSSSVGSPPVLYMQPSPL
modifications: GST fusion
With B2 the “phosphorylation by RSK2 in vitro” value (RSK2) was “efficiently phosphorylated”.

B3: GST/TIF-IA409-632: GST fusion of a TIF-IA C-terminal fragment lacking amino acids 633-651 (protein, UniProt Q9NYV6 409-632, looked up, fragment)
chain: SFLARAKFIPLITVKSCLDLLVNWLHIYLNNQDSGTKAFCDVALHGPFYSACQAVFYTFVFRHKQLLSGNLKEGLQYLQSLNFERIVMSQLNPLKICLPSVVNFFAAITNKYQLVFCYTIIERNNRQMLPVIRSTAGGDSVQICTNPLDTFFPFDPCVLKRSKKFIDPIYQVWEDMSAEELQEFKKPMKKDIVEDEDDDFLKGEVPQNDTVIGITPSSFDTHFR
modifications: GST fusion
With B3 the “phosphorylation by RSK2 in vitro” value (RSK2) was “not phosphorylated”.
